{"source": "paper PMC3841061", "biological_target": "P2Y1R-i3-YFP-long2/tail-HT (human) (UniProt P47900)", "sequence (P47900 whole entry)": "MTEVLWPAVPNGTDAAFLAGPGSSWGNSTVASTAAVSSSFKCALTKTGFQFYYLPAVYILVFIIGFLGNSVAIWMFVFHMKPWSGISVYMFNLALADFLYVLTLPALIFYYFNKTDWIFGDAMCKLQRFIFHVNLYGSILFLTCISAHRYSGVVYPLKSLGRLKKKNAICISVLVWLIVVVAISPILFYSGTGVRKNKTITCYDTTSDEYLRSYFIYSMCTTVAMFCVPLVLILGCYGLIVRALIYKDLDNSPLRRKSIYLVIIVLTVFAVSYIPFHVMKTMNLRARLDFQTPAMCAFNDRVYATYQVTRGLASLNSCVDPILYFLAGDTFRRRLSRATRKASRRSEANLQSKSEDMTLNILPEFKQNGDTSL", "assay": "FRET or BRET"}
{"substance": "Gαq-CFP (from UniProt P21279 1-359) (natural protein)", "values": [{"measurement": "ΔnF/ICFP by ADPβS 10 μmol/L (agonist-induced increase in FRET)", "result": 0.014}]}
